# Experimental data taken from FireProtDB (doi:10.1021/bi00815a015).
# Where “and” joins values, the source holds several entries; their conditions need not be identical. Identical values can stand only once.
# B1: Guanyl-specific ribonuclease T1 wild type, P00651 (protein)
# chain: MMYSKLLTLTTLLLPTALALPSLVERACDYTCGSNCYSSSDVSTAQAAGYQLHEDGETVGSNSYPHKYNNYEGFDFSVSSPYYEWPILSSGDVYSGGSPGADRVVFNENNQLAGVITHTGASGNNFVECT
# Conditions: Aspergillus oryzae (strain ATCC 42149 / RIB 40), Thermal, DSC, whole UniProt chain shown
# [1] = pH 0.36, glycine 0.2 N, HCl, reversible: yes
# [2] = pH 1.05, HCl, NaCl 0.2 N, reversible: yes
# [3] = pH 2.02, glycine 0.2 N, reversible: yes
# [4] = pH 2.8, glycine 0.2 N, reversible: yes
# [5] = pH 3.28, glycine 0.2 N, reversible: yes
# [6] = pH 4.04, acetate 0.2 N, reversible: no
# [7] = pH 5, acetate 0.2 N, reversible: no
# [8] = pH 6.23, acetate 0.2 N, reversible: no
# [9] = pH 7, None, NaCl 0.2 N, reversible: no
# [10] = pH 7.8, None, NaCl 0.2 N, reversible: no
protein,measurement,setting,value
B1,Tm,"pH 0.36, HCl, reversible: yes",25 °C
same,unfolding enthalpy (calorimetric),"pH 0.36, HCl, reversible: yes",48.7 kcal/mol
same,Tm,[1],31.5 °C
same,heat capacity change of unfolding,[1],1.9 kcal/mol/K
same,unfolding enthalpy (calorimetric),[1],61.2 kcal/mol
same,unfolding enthalpy (van 't Hoff),[1],62 kcal/mol
same,Tm,[2],25 °C
same,unfolding enthalpy (calorimetric),[2],49.1 kcal/mol
same,Tm,[3],31.2 °C
same,heat capacity change of unfolding,[3],1.98 kcal/mol/K
same,unfolding enthalpy (calorimetric),[3],65.6 kcal/mol
same,unfolding enthalpy (van 't Hoff),[3],67 kcal/mol
same,heat capacity change of unfolding,[4],2.11 kcal/mol/K
same,unfolding enthalpy (calorimetric),[4],87.7 kcal/mol and 54.8 kcal/mol
same,unfolding enthalpy (van 't Hoff),[4],68 kcal/mol
same,Tm,[5],25 °C
same,unfolding enthalpy (calorimetric),[5],63.4 kcal/mol
same,heat capacity change of unfolding,[6],2.08 kcal/mol/K
same,unfolding enthalpy (calorimetric),[6],126 kcal/mol and 69.2 kcal/mol
same,unfolding enthalpy (van 't Hoff),[6],64 kcal/mol
same,heat capacity change of unfolding,[7],2.25 kcal/mol/K
same,unfolding enthalpy (calorimetric),[7],151 kcal/mol and 77.2 kcal/mol
same,unfolding enthalpy (van 't Hoff),[7],60 kcal/mol
same,heat capacity change of unfolding,[8],2.05 kcal/mol/K
same,unfolding enthalpy (calorimetric),[8],156 kcal/mol and 81.2 kcal/mol
same,unfolding enthalpy (van 't Hoff),[8],66 kcal/mol
same,heat capacity change of unfolding,[9],2.07 kcal/mol/K
same,unfolding enthalpy (calorimetric),[9],168 kcal/mol and 92.9 kcal/mol
same,unfolding enthalpy (van 't Hoff),[9],88 kcal/mol
same,heat capacity change of unfolding,[10],2 kcal/mol/K
same,unfolding enthalpy (calorimetric),[10],178 kcal/mol and 106 kcal/mol
same,unfolding enthalpy (van 't Hoff),[10],72 kcal/mol
